The subject of data set [1] is HeLa Kyoto. Kind of data set: thermal stability score vs G1/S (z-score of summed log2 fold changes over temperatures); higher = more thermally stable than in G1/S.
Data set [2] concerns HeLa Kyoto. Kind of data set: solubility in G1/S (NP-40 vs SDS abundance) (log2 ratio); higher = more soluble. The settings on record: cell cycle stage: G1/S.
The test system of data set [3] is HeLa Kyoto. Kind of data set: melting temperature (median over replicates), in situ; higher = more thermally stable.
The test system of data set [4] is HeLa Kyoto. Kind of data set: solubility change mitosis vs G1/S (difference of NP-40 vs SDS log2 ratios) (log2 ratio difference); higher = more soluble in mitosis.
[5] abbreviates: cell cycle stage: early G1 (4.5 h after nocodazole release).
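Throughout, for melting temperature (median over replicates), in situ: HeLa Kyoto cells synchronized by double thymidine or nocodazole block, proteins quantified by TMT10plex mass spectrometry, three independent biological replicates.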
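Throughout, for solubility change mitosis vs G1/S (difference of NP-40 vs SDS log2 ratios): synchronized HeLa Kyoto cells (double thymidine block for G1/S, nocodazole release for mitosis), protein amounts in NP-40 versus SDS lysates quantified by mass spectrometry, three biological replicates.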
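Throughout, for solubility in G1/S (NP-40 vs SDS abundance): HeLa Kyoto cells arrested at G1/S by double thymidine block, proteins quantified by TMT10plex mass spectrometry in mild NP-40 versus SDS extracts, three biological replicates.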
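Throughout, for thermal stability score vs G1/S (z-score of summed log2 fold changes over temperatures): synchronized HeLa Kyoto cells, proteins quantified by TMT10plex mass spectrometry, three biological replicates, mitosis taken 0.5 h after nocodazole release, G1/S directly after double thymidine block.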

With “MRSAAAAPRSPAVATESRRFAAARWPGWRSLQRPARRSGRGGGGAAPGPYPSAAPPPPGPGPPPSRQSSPPSASDCFGSNGNGGGAFRPGSRRLLGLGGPPRPFVVLLLPLASPGAPPAAPTRASPLGARASPPRSGVSLARPAPGCPRPACEPVYGPLTMSLKPQQQQQQQQQQQQQQQQQQQQQQQPPPAAANVRKPGGSGLLASPAAAPSPSSSSVSSSSATAPSSVVAATSGGGRPGLGRGRNSNKGLPQSTISFDGIYANMRMVHILTSVVGSKCEVQVKNGGIYEGVFKTYSPKCDLVLDAAHEKSTESSSGPKREEIMESILFKCSDFVVVQFKDMDSSYAKRDAFTDSAISAKVNGEHKEKDLEPWDAGELTANEELEALENDVSNGWDPNDMFRYNEENYGVVSTYDSSLSSYTVPLERDNSEEFLKREARANQLAEEIESSAQYKARVALENDDRSEEEKYTAVQRNSSEREGHSINTRENKYIPPGQRNREVISWGSGRQNSPRMGQPGSGSMPSRSTSHTSDFNPNSGSDQRVVNGGVPWPSPCPSPSSRPPSRYQSGPNSLPPRAATPTRPPSRPPSRPSRPPSHPSAHGSPAPVSTMPKRMSSEGPPRMSPKAQRHPRNHRVSAGRGSISSGLEFVSHNPPSEAATPPVARTSPSGGTWSSVVSGVPRLSPKTHRPRSPRQNSIGNTPSGPVLASPQAGIIPTEAVAMPIPAASPTPASPASNRAVTPSSEAKDSRLQDQRQNSPAGNKENIKPNETSPSFSKAENKGISPVVSEHRKQIDDLKKFKNDFRLQPSSTSESMDQLLNKNREGEKSRDLIKDKIEPSAKDSFIENSSSNCTSGSSKPNSPSISPSILSNTEHKRGPEVTSQGVQTSSPACKQEKDDKEEKKDAAEQVRKSTLNPNAKEFNPRSFSQPKPSTTPTSPRPQAQPSPSMVGHQQPTPVYTQPVCFAPNMMYPVPVSPGVQPLYPIPMTPMPVNQAKTYRAVPNMPQQRQDQHHQSAMMHPASAAGPPIAATPPAYSTQYVAYSPQQFPNQPLVQHVPHYQSQHPHVYSPVIQGNARMMAPPTHAQPGLVSSSATQYGAHEQTHAMYACPKLPYNKETSPSFYFAISTGSLAQQYAHPNATLHPHTPHPQPSATPTGQQQSQHGGSHPAPSPVQHHQHQAAQALHLASPQQQSAIYHAGLAPTPPSMTPASNTQSPQNSFPAAQQTVFTIHPSHVQPAYTNPPHMAHVPQAHVQSGMVPSHPTAHAPMMLMTTQPPGGPQAALAQSALQPIPVSTTAHFPYMTHPSVQAHHQQQL [ATXN2]”, the figures for the thermal stability score in data set [1] (setting [5]) and in data set [1] (cell cycle stage: mitosis) were -0.37 and -1.31, respectively. Besides, in data set [2], the “solubility in G1/S (log2)” value is -0.281. Besides, the melting temperature in data set [3] (cell cycle stage: G1/S) was 52.5 °C; in data set [3] (cell cycle stage: mitosis), 51.9 °C. For the same sequence, in data set [4], the “solubility change mitosis (log2)” value amounted to 0.278.
“MRSAAKPWNPAIRAGGHGPDRVRPLPAASSGMKSSKSSTSLAFESRLSRLKRASSEDTLNKPGSTAASGVVRLKKTATAGAISELTESRLRSGTGAFTTTKRTGIPAPREFSVTVSRERSVPRGPSNPRKSVSSPTSSNTPTPTKHLRTPSTKPKQENEGGEKAALESQVRELLAEAKAKDSEINRLRSELKKYKEKRTLNAEGTDALGPNVDGTSVSPGDTEPMIRALEEKNKNFQKELSDLEEENRVLKEKLIYLEHSPNSEGAASHTGDSSCPTSITQESSFGSPTGNQMSSDIDEYKKNIHGNALRTSGSSSSDVTKASLSPDASDFEHITAETPSRPLSSTSNPFKSSKCSTAGSSPNSVSELSLASLTEKIQKMEENHHSTAEELQATLQELSDQQQMVQELTAENEKLVDEKTILETSFHQHRERAEQLSQENEKLMNLLQERVKNEEPTTQEGKIIELEQKCTGILEQGRFEREKLLNIQQQLTCSLRKVEEENQGALEMIKRLKEENEKLNEFLELERHNNNMMAKTLEECRVTLEGLKMENGSLKSHLQGEKQKATEASAVEQTAESCEVQEMLKVARAEKDLLELSCNELRQELLKANGEIKHVSSLLAKVEKDYSYLKEICDHQAEQLSRTSLKLQEKASESDAEIKDMKETIFELEDQVEQHRAVKLHNNQLISELESSVIKLEEQKSDLERQLKTLTKQMKEETEEWRRFQADLQTAVVVANDIKCEAQQELRTVKRKLLEEEEKNARLQKELGDVQGHGRVVTSRAAPPPVDEEPESSEVDAAGRWPGVCVSRTSPTPPESATTVKSLIKSFDLGRPGGAGQNISVHKTPRSPLSGIPVRTAPAAAVSPMQRHSTYSSVRPASRGVTQRLDLPDLPLSDILKGRTETLKPDPHLRKSPSLESLSRPPSLGFGDTRLLSASTRAWKPQSKLSVERKDPLAALAREYGGSKRNALLKWCQKKTQGYANIDITNFSSSWSDGLAFCALLHTYLPAHIPYQELNSQEKKRNLLLAFEAAESVGIKPSLELSEMLYTDRPDWQSVMQYVAQIYKYFET [SPECC1]”: the results for the thermal stability score in data set [1] (setting [5]) and in data set [1] (cell cycle stage: mitosis) were -1.45 and -1.95, respectively. The “solubility in G1/S (log2)” value in data set [2] came out at 0.148. Further, the melting temperature in data set [3] (cell cycle stage: G1/S) came to 52.2 °C; in data set [3] (cell cycle stage: mitosis), 51.5 °C. Besides, the “solubility change mitosis (log2)” value in data set [4] is -0.147.
For the sequence “MRSGGRGRPRLRLGERGLMEPLLPPKRRLLPRVRLLPLLLALAVGSAFYTIWSGWHRRTEELPLGRELRVPLIGSLPEARLRRVVGQLDPQRLWSTYLRPLLVVRTPGSPGNLQVRKFLEATLRSLTAGWHVELDPFTASTPLGPVDFGNVVATLDPRAARHLTLACHYDSKLFPPGSTPFVGATDSAVPCALLLELAQALDLELSRAKKQAAPVTLQLLFLDGEEALKEWGPKDSLYGSRHLAQLMESIPHSPGPTRIQAIELFMLLDLLGAPNPTFYSHFPRTVRWFHRLRSIEKRLHRLNLLQSHPQEVMYFQPGEPFGSVEDDHIPFLRRGVPVLHLISTPFPAVWHTPADTEVNLHPPTVHNLCRILAVFLAEYLGL [QPCTL]”, the thermal stability score stood at 3.48 in data set [1] (setting [5]) and 4.18 in data set [1] (cell cycle stage: mitosis). For the same sequence, the “solubility in G1/S (log2)” value in data set [2] was -0.29. Besides, the melting temperature in data set [3] (cell cycle stage: G1/S) came to 51.9 °C; in data set [3] (cell cycle stage: mitosis) it was 52.7 °C. Besides, the “solubility change mitosis (log2)” value in data set [4] amounted to 0.00122.
With “MRSIRSFANDDRHVMVKHSTIYPSPEELEAVQNMVSTVECALKHVSDWLDETNKGTKTEGETEVKKDEAGENYSKDQGGRTLCGVMRIGLVAKGLLIKDDMDLELVLMCKDKPTETLLNTVKDNLPIQIQKLTEEKYQVEQCVNEASIIIRNTKEPTLTLKVILTSPLIRDELEKKDGENVSMKDPPDLLDRQKCLNALASLRHAKWFQARANGLKSCVIVLRILRDLCNRVPTWAPLKGWPLELICEKSIGTCNRPLGAGEALRRVMECLASGILLPGGPGLHDPCERDPTDALSYMTIQQKEDITHSAQHALRLSAFGQIYKVLEMDPLPSSKPFQKYSWSVTDKEGAGSSALKRPFEDGLGDDKDPNKKMKRNLRKILDSKAIDLMNALMRLNQIRPGLQYKLLSQSGPVHAPVFTMSVDVDGTTYEASGPSKKTAKLHVAVKVLQAMGYPTGFDADIECMSSDEKSDNESKNETVSSNSSNNTGNSTTETSSTLEVRTQGPILTASGKNPVMELNEKRRGLKYELISETGGSHDKRFVMEVEVDGQKFRGAGPNKKVAKASAALAALEKLFSGPNAANNKKKKIIPQAKGVVNTAVSAAVQAVRGRGRGTLTRGAFVGATAAPGYIAPGYGTPYGYSTAAPAYGLPKRMVLLPVMKFPTYPVPHYSFF [STRBP]”, the thermal stability score in data set [1] (setting [5]) was -0.506; in data set [1] (cell cycle stage: mitosis), -0.00226. For the same sequence, the “solubility in G1/S (log2)” value in data set [2] was -0.314. Also, the melting temperature in data set [3] (cell cycle stage: G1/S) is 50.5 °C; in data set [3] (cell cycle stage: mitosis), 52.5 °C. Moreover, in data set [4], the “solubility change mitosis (log2)” value was -0.0522.
Consider “MRSRVAVRACHKVCRCLLSGFGGRVDAGQPELLTERSSPKGGHVKSHAELEGNGEHPEAPGSGEGSEALLEICQRRHFLSGSKQQLSRDSLLSGCHPGFGPLGVELRKNLAAEWWTSVVVFREQVFPVDALHHKPGPLLPGDSAFRLVSAETLREILQDKELSKEQLVAFLENVLKTSGKLRENLLHGALEHYVNCLDLVNKRLPYGLAQIGVCFHPVFDTKQIRNGVKSIGEKTEASLVWFTPPRTSNQWLDFWLRHRLQWWRKFAMSPSNFSSSDCQDEEGRKGNKLYYNFPWGKELIETLWNLGDHELLHMYPGNVSKLHGRDGRKNVVPCVLSVNGDLDRGMLAYLYDSFQLTENSFTRKKNLHRKVLKLHPCLAPIKVALDVGRGPTLELRQVCQGLFNELLENGISVWPGYLETMQSSLEQLYSKYDEMSILFTVLVTETTLENGLIHLRSRDTTMKEMMHISKLKDFLIKYISSAKNV [POLG2]”, for which the thermal stability score in data set [1] (setting [5]) was found to be 0.753; in data set [1] (cell cycle stage: mitosis), 1.26. In data set [2], the “solubility in G1/S (log2)” value was -0.0655. Also, the melting temperature in data set [3] (cell cycle stage: mitosis) was 54.6 °C. Besides, in data set [4], the “solubility change mitosis (log2)” value was 0.206.
“MRTDSGARLEEGHLRPPRALPPVPSQDDIPLSRPKKKKPRTKNTPASASLEGLAQTAGRRPSEGNEPSTKELKEHPEAPVQRRQKKTRLPLELETSSTQKKSSSSSLLRNENGIDAEPAEEAVIQKPRRKTKKTQPAELQYANELGVEDEDIITDEQTTVEQQSVFTAPTGISQPVGKVFVEKSRRFQAADRSELIKTTENIDVSMDVKPSWTTRDVALTVHRAFRMIGLFSHGFLAGCAVWNIVVIYVLAGDQLSNLSNLLQQYKTLAYPFQSLLYLLLALSTISAFDRIDFAKISVAIRNFLALDPTALASFLYFTALILSLSQQMTSDRIHLYTPSSVNGSLWEAGIEEQILQPWIVVNLVVALLVGLSWLFLSYRPGMDLSEELMFSSEVEEYPDKEKEIKASS [TMEM237]”: the thermal stability score in data set [1] (setting [5]) is -4.81; in data set [1] (cell cycle stage: mitosis), -5.57. The “solubility in G1/S (log2)” value in data set [2] is -0.0506. Besides, the melting temperature in data set [3] (cell cycle stage: G1/S) was 54.9 °C; in data set [3] (cell cycle stage: mitosis), 55.4 °C. Moreover, the “solubility change mitosis (log2)” value in data set [4] was -0.0698.
With “MSAEVKVTGQNQEQFLLLAKSAKGAALATLIHQVLEAPGVYVFGELLDMPNVRELAESDFASTFRLLTVFAYGTYADYLAEARNLPPLTEAQKNKLRHLSVVTLAAKVKCIPYAVLLEALALRNVRQLEDLVIEAVYADVLRGSLDQRNQRLEVDYSIGRDIQRQDLSAIARTLQEWCVGCEVVLSGIEEQVSRANQHKEQQLGLKQQIESEVANLKKTIKVTTAAAAAATSQDPEQHLTELREPAPGTNQRQPSKKASKGKGLRGSAKIWSKSN [COPS7A]”, the thermal stability score in data set [1] (setting [5]) is -1.47; in data set [1] (cell cycle stage: mitosis) it was -1.53. In addition, the “solubility in G1/S (log2)” value in data set [2] was found to be 0.458. The melting temperature in data set [3] (cell cycle stage: G1/S) came to 53.9 °C; in data set [3] (cell cycle stage: mitosis) it was 54 °C. Further, the “solubility change mitosis (log2)” value in data set [4] was found to be 0.216.
On to “MSAFDTNPFADPVDVNPFQDPSVTQLTNAPQGGLAEFNPFSETNAATTVPVTQLPGSSQPAVLQPSVEPTQPTPQAVVSAAQAGLLRQQEELDRKAAELERKERELQNTVANLHVRQNNWPPLPSWCPVKPCFYQDFSTEIPADYQRICKMLYYLWMLHSVTLFLNLLACLAWFSGNSSKGVDFGLSILWFLIFTPCAFLCWYRPIYKAFRSDNSFSFFVFFFVFFCQIGIYIIQLVGIPGLGDSGWIAALSTLDNHSLAISVIMMVVAGFFTLCAVLSVFLLQRVHSLYRRTGASFQQAQEEFSQGIFSSRTFHRAASSAAQGAFQGN [SCAMP2]”, for which the thermal stability score in data set [1] (setting [5]) is -1.72; in data set [1] (cell cycle stage: mitosis), -3.07. For the same sequence, the “solubility in G1/S (log2)” value in data set [2] came to 0.177. Moreover, the melting temperature turned out to be 58.4 °C in data set [3] (cell cycle stage: G1/S) and 56.6 °C in data set [3] (cell cycle stage: mitosis). Further, the “solubility change mitosis (log2)” value in data set [4] is -0.103.

These data come from the supplement of paper PMC5998384.
